Reference: US20240376224A1 (University of California, published 2024)

How the values were obtained:
c-CDCP1-Fc (Cut 2) = target: T1, c-CDCP1-Fc (Cut 2) (human, UniProt Q9H5V8 30-368; Q9H5V8 369-667); assay: BLI (Octet), table of in vitro binding affinities
T1 construct: Co-transfection of NTF and CTF-Fc plasmids; not shown: Fc domain
T1 sequence 1: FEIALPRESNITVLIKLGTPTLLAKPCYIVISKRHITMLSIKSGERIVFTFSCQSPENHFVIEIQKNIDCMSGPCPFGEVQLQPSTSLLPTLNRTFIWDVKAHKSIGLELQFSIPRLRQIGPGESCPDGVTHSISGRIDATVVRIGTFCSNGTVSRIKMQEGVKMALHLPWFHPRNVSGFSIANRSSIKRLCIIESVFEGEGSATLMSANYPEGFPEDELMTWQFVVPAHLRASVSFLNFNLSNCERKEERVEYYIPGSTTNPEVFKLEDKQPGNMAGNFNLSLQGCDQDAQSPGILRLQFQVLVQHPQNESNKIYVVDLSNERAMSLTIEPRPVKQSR
T1 sequence 2: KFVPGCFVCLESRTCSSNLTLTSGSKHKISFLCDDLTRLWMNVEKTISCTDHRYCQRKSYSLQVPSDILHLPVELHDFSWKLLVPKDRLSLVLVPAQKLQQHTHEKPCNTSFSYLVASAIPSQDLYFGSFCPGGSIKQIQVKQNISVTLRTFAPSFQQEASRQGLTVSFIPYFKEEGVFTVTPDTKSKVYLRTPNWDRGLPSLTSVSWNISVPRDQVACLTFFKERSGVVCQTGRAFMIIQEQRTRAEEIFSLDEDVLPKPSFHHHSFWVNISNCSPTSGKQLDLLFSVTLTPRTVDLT
Method: (§1) BLI experiments were performed using an Octet RED384 instrument (ForteBio). Biotinylated proteins were immobilized on a streptavidin (SA) biosensor and His-tagged proteins were immobilized on a Ni-NTA biosensor. Different concentrations of analyte in PBS pH 7.4+0.05% Tween-20+0.2% BSA (PBSTB) were used as analyte. Affinities (KDS) were calculated from a global fit (1:1) of the data using the Octet RED384 software.

c-CDCP1-Fc (Cut 3) = target: T2, c-CDCP1-Fc (Cut 3) (human, UniProt Q9H5V8 30-369; Q9H5V8 370-667); assay: BLI (Octet), table of in vitro binding affinities
T2 construct: Co-transfection of NTF and CTF-Fc plasmids; not shown: Fc domain
T2 sequence 1: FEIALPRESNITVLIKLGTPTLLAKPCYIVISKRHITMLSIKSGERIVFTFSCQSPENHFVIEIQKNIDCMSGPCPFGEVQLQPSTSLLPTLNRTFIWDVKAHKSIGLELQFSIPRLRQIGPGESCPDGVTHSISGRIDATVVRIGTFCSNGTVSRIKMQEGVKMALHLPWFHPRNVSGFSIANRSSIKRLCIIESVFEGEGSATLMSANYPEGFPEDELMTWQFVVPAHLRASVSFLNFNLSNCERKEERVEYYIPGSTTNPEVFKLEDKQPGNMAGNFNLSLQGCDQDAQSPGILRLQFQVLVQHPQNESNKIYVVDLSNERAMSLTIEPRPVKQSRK
T2 sequence 2: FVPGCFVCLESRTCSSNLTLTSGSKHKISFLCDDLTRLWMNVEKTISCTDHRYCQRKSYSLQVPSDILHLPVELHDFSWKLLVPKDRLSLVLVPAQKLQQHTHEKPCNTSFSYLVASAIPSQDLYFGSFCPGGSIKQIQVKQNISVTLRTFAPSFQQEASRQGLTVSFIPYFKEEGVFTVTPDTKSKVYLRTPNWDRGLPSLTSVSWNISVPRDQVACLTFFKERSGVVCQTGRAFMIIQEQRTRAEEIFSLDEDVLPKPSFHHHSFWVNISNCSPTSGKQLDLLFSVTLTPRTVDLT
Method: as §1

[1] = target: T3, cleaved human CDCP1 on the cell surface (endogenous, PDAC cells) (human) (UniProt Q9H5V8); assay: dose-response flow cytometry on PL45 cells; PL45 cells
T3 sequence 1: T1 sequence 1
T3 sequence 2: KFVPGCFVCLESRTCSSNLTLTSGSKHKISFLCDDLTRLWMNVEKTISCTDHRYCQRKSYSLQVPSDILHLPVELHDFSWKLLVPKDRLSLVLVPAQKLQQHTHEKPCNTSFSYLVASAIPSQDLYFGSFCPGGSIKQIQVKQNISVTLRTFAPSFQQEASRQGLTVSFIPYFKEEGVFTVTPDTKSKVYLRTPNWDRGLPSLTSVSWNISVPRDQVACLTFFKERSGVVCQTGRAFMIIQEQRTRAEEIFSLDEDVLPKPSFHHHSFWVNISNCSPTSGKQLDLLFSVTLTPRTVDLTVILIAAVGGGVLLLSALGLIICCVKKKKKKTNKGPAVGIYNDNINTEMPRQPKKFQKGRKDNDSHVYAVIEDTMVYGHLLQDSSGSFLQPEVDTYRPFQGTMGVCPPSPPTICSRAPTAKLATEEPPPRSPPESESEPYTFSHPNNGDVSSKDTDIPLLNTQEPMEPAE

Kd (c-CDCP1-Fc (Cut 2)): 0.37 nM
koff (c-CDCP1-Fc (Cut 2)): 0.000174 s⁻¹
kon (c-CDCP1-Fc (Cut 2)): 473000 M⁻¹ s⁻¹
Kd (c-CDCP1-Fc (Cut 3)): 0.15 nM
koff (c-CDCP1-Fc (Cut 3)): 7.43e-05 s⁻¹
kon (c-CDCP1-Fc (Cut 3)): 492000 M⁻¹ s⁻¹
EC50 [1]: 20.7 nM
B1: CL03 IgG (antibody, V domains shown)
VH: EVQLVESGGGLVQPGGSLRLSCAASGFNFSSYSIHWVRQAPGKGLEWVASIYPYSGSTYYADSVKGRFTISADTSKNTAYLQMNSLRAEDTAVYYCARQSHSYYSHTWWVSYGMDYWGQGTLVTVSS
VL: DIQMTQSPSSLSASVGDRVTITCRASQSVSSAVAWYQQKPGKAPKLLIYSASSLYSGVPSRFSGSRSGTDFTLTISSLQPEDFATYYCQQSGQRPITFGQGTKVEIKR
notes: also called IgG CL03
